# ± gives the uncertainty stated by the source.
# Experiment: amyloid nucleation score (Sup35N fusion, yeast selection) (log enrichment); library NNK3; higher = more nucleation; inactive = no reads after selection
# Summary of the method: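 Sup35N fusions to peptides of 20 random codons were expressed in psi-negative yeast, induced 24 hours with 100 μM copper sulfate, and grown 7 days at 30°C on medium lacking adenine and uracil. Input and output plasmid inserts were sequenced by Illumina. The nucleation score is the DiMSum log enrichment of output over input reads, centred on the mode score of non-aggregating sequences. Sequences with under 100 input reads were excluded.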
row,Substance,amyloid nucleation score
1,SVYCYEAS,inactive
2,FLSPSGVD,inactive
3,VTGNDQ,inactive
4,SISCKKVGGSKASQRPYKA,inactive
5,MFLSWCKKVNLRMIILSSDT,inactive
6,LGFFSSSKLLVGGASASIVS,inactive
7,TLHWCMVSNHRAKCYCLFET,0.472 ± 0.42
8,SLCSVLIMHPSNSDRF,0.101 ± 0.75
9,VARISYLEIHNGETNFTYWF,2.47 ± 0.062
10,DWCVSSEMSVTNALQATKFA,inactive
11,QDKMSMYTYMMR,inactive
12,MFSSLV,inactive
13,LEDRACVFNKLIVLQ,inactive
14,VLLLFWAPVNAGTVWYLWNR,inactive
15,GCKRSSGKRFLCRGAPCDEW,inactive
16,AMSTDLLSVACL,inactive
17,LGVCVWQCLGMSIVNALKRL,inactive
18,IPSTMRDDFAYTNCPNNSFL,inactive
19,RLSYRVNCLRCPNFWNRHMS,1.93 ± 0.11
20,NNNFRKDSS,inactive
21,FSVLVSCSWGMKFI,inactive
22,FHVTVFWNRHNSDLMVLHR,inactive
23,GCASRLFVGWRGSCRMCGTY,inactive

row,Substance,amyloid nucleation score
1,RYVGAVWYYTMNIVNYNSFI,1.7 ± 0.06
2,NLCDVGRMLNCRRTSFGYMF,inactive
3,WDYGKWE,inactive
4,NKKSSAMYCQGIFLTFILLV,inactive
5,TPSRREMDVCVFFSPFAMHM,0.896 ± 0.095
6,GECTWTDVPMANSPRFVSEY,inactive
7,FFQDQFVDWLDYTVLRI,inactive
8,GVFDYTYGRLVAVFKGFGNY,inactive
9,YCVSGMVMCCH,inactive
10,EISLPLFFATLGYFFWIAMR,inactive
11,ESDGCNNQFRHWSHCRSKNP,inactive
12,FIKYFANLRKFCDILSCSL,1.27 ± 0.14
13,AFFVVTIFVVNTSCDNVLVS,1.03 ± 0.11
14,RCPTPTWSINGPC,inactive
15,NCMEINVYFTFVEMQLAELD,2.69 ± 0.055
16,DSFGLFCYTYLWCLWQANDK,2.05 ± 0.097
17,FSRGLNHYNLYNFGGLCICT,2.91 ± 0.07
18,NVYYSPFCWCMPDMFFDSIC,2.88 ± 0.08
19,VYRRGDIATLLNDI,inactive
20,TLDAILNLHTS,inactive
21,WFGEYPQFWRARSYFRTSDW,inactive
22,LSRINSCRLMVQVQLSRT,inactive
23,FVSEFMTSSTYLVPTVHITV,inactive

row,Substance,amyloid nucleation score
1,CAAIRGKL,inactive
2,WYIFFMEVMAGRY,inactive
3,KEQDTQSIAQCNKTHRA,inactive
4,DVEFGLSKLCYHRVCYVTEM,-0.113 ± 0.66
5,WVKNLVFEGHVGA,inactive
6,PTFNRAMTWYFKFLFHYAHD,inactive
7,LAVYSSINFSRNGGSLTWTI,inactive
8,VYFFSGLGTCD,inactive
9,DLSVWRALYNGLLQRASH,inactive
10,RFYDYYTLQVRYMTLHATNG,inactive
11,AVQQKSECFLFAFLILRDWV,inactive
12,NPRTRFILNLPVFPSYHEHP,inactive
13,YYSGVFPNVVGRS,inactive
14,VVVMPTNSECCYQYGGMFPM,inactive
15,LMFNGILNQCSVMYLNRIYK,2.97 ± 0.081
16,CLSSSINMTMVYCCNSLMFG,2.13 ± 0.069
17,LCQTVCRAPI,inactive
18,YILRFSWFIYLIRQWSNSGP,inactive
19,LCSVDVVLPVKYCVLPDH,1.76 ± 0.076
20,NLVSVSRSYIKCVDRHRRTA,inactive
21,LIPIW,inactive
22,FICVAIGTFCFIEMMHLIGR,1.23 ± 0.086
23,ATSTTSLRVNLDHCAETFQN,0.238 ± 0.44

row,Substance,amyloid nucleation score
1,NSYKVLTYVFCQVRANTIYC,2.04 ± 0.059
2,KYKVDIMLRIARSTVFSDSF,inactive
3,ASGSHSVT,inactive
4,MYQSLAYFASDLRIHWHMRK,0.729 ± 0.14
5,ACFEAICGYSTLSQ,inactive
6,FMSSSPDSYCEKGKRQ,inactive
7,TAIVIMTYYTIRGFRTIGMW,-0.174 ± 0.22
8,YCSIMYVCNKILFNAAKARL,inactive
9,LFYLGIYDFDGNW,inactive
10,IDTAFRSYCYDFDLANDLMG,inactive
11,FWKKLWNSSF,inactive
12,RSVSNVFRLCLDAWGKVRRH,inactive
13,FIQYEHNLPGTARGKCIQC,inactive
14,VHLYEFRLNAACSCPSDRYG,inactive
15,FLVIPWDEEKCRLSDLFASN,inactive
16,MGLLLFLSANDV,inactive
17,IFGWLVDYLSFRVYKEDKGV,inactive
18,LFSHESLVTTGLVAVFSLAK,inactive
19,QSLHSYNRSESCSLGSSFWI,inactive
20,LCNFKDSADNWVSVGGNVGE,inactive
21,SCYFGILQWSQSPYFHCPFT,inactive
22,PTGLGTAYQLNAWTASFG,inactive
23,STHFRCELQRICF,inactive

row,Substance,amyloid nucleation score
1,VYYNSVNVLSVSGCRLDGLN,1.66 ± 0.11
2,RVKSVTVMMIFDNYSCMVCN,1.93 ± 0.069
3,INSSILGSCLWWFLFCF,1.2 ± 0.12
4,TVICELRNMRYS,1.81 ± 0.087
5,NRIMGVGLY,inactive
6,WCTSFGELEVYRVALILRTA,inactive
7,FHYRENVNREHSPFWSREMV,inactive
8,FEHPHGGVNS,inactive
9,NRCKLNVAGHLCANRTRRFR,inactive
10,QFDKSNPWNSSSLMMPENGV,inactive
11,SLYRWYVQMRGIR,inactive
12,IWWNHCEHHMLRSSLRVRAY,inactive
13,KSDPPGTVLYYTLAQPLYLL,inactive
14,EGHLIHEYTQTRFVLEVSVK,inactive
15,IKVTIYPRLTRSNATFMPSM,inactive
16,KVLLWPSWFK,inactive
17,RTPHELKFRCSFQKVWQGMV,inactive
18,FQCMFYFIFSRCQHLVYCHF,inactive
19,SLRHLDFFRLTGFWHFYALD,inactive
20,YVTDMRCGVL,inactive
21,LAVYPTGTDRDFGF,inactive
22,LNTDESWGFMCLTKFE,inactive
23,YNVFEALLNRWH,inactive

row,Substance,amyloid nucleation score
1,RQISLYFSFNRFSMYFTLNL,inactive
2,GGDSPNDARRFFNFHIYNIW,2.05 ± 0.08
3,RDYQCLQLYCRSASPIT,inactive
4,CFNYRLDFTQNWYMLIQCCH,0.867 ± 0.24
5,NLFMMHV,inactive
6,IIGSCGGFVSLACSGTLDGV,0.538 ± 0.2
7,YSTVDQLARGLQKLMVWLDV,inactive
8,IRMQNLRFGSLKLAGFIMCD,inactive
9,TSDIDIY,-0.397 ± 0.73
10,YNLSNTVLAISVGERNT,inactive
11,LLLSLGVLCYP,inactive
12,TQNNNGRVETPGASTPKHPC,inactive
13,LGKKLDCGDSMRSVRPICRG,inactive
14,RVWHLYTMV,-1.11 ± 1.9
15,NGNFWCFVLVLS,0.595 ± 0.24
16,CGWIFNLYSRRIQALEGRAS,inactive
17,WFFLGFVLIIKWLGLHQYSF,inactive
18,CFELDVRDEA,inactive
19,LGNGSLVIG,0.033 ± 0.27
20,PSVHCMWCPRQPDVFPRWIV,inactive
21,VVVSSYNCVLVQVVICKWGR,0.192 ± 0.85
22,GSTGVIDDLSKVHCGGMCVD,inactive
23,IFTTNCYISNFYNGWWDV,2.91 ± 0.078

row,Substance,amyloid nucleation score
1,GSVQTHFLDYGCSPNMDMLV,inactive
2,VWDNMMIFLYWFFLKSCSHG,inactive
3,TRWSVFKLRADDRNMQASKS,inactive
4,DLLPLVTKYFSIGLH,inactive
5,DQDKLFSEIRAMKFCCSFPP,inactive
6,YVHFLFQTHIRCMVRFSLCW,inactive
7,YFISRCIWLVKSYREIELRW,inactive
8,TMSLFTTSVCCWTKGAIRHS,inactive
9,YFDSWTSMSAYYMGSFHW,inactive
10,VRCKVMSSAAATVFFVSGAV,inactive
11,ICTVNMTNQSEC,inactive
12,RGKCSNIETRIVRCWGGQVV,inactive
13,MIFVGILVFSDLRASKVPWV,inactive
14,SMRILR,inactive
15,NMWWNGSETNCESRVFEIET,inactive
16,HKITVNLS,inactive
17,FTFRLVKNTTLNGIYFCIKR,0.787 ± 0.18
18,KTLTGQFGCSTTALCNDVEC,-0.515 ± 0.75
19,GSTVEYTFGDWKYQDMSSVC,inactive

# — the supplement of paper PMC12042874
